Assay results from patent US9695426B2, “Biofuel production by recombinant microorganisms” (The Regents of the University of California, priority 2007, dated 2017).

B1: ARO10: 2-keto-acid decarboxylase Aro10 from S. cerevisiae (protein, listed as Saccharomyces cerevisiae)
chain: MAPVTIEKFVNQEERHLVSNRSATIPFGEYIFKRLLSIDTKSVFGVPGDFNLSLLEYLYSPSVESAGLRWVGTCNELNAAYAADGYSRYSNKIGCLITTYGVGELSALNGIAGSFAENVKVLHIVGVAKSIDSRSSNFSDRNLHHLVPQLHDSNFKGPNHKVYHDMVKDRVACSVAYLEDIETACDQVDNVIRDIYKYSKPGYIFVPADFADMSVTCDNLVNVPRISQQDCIVYPSENQLSDIINKITSWIYSSKTPAILGDVLTDRYGVSNFLNKLICKTGIWNFSTVMGKSVIDESNPTYMGQYNGKEGLKQVYEHFELCDLVLHFGVDINEINNGHYTFTYKPNAKIIQFHPNYIRLVDTRQGNEQMFKGINFAPILKELYKRIDVSKLSLQYDSNVTQYTNETMRLEDPTNGQSSIITQVHLQKTMPKFLNPGDVVVCETGSFQFSVRDFAFPSQLKYISQGFFLSIGMALPAALGVGIAMQDHSNAHINGGNVKEDYKPRLILFEGDGAAQMTIQELSTILKCNIPLEVIIWNNNGYTIERAIMGPTRSYNDVMSWKWTKLFEAFGDFDGKYTNSTLIQCPSKLALKLEELKNSNKRSGIELLEVKLGELDFPEQLKCMVEAAALKRNKK
modifications: CDS (1)..(1908)
notes: 2-keto-acid decarboxylase Aro10 from S. cerevisiae
B2: CimA1: CimA variant with three amino acid substitutions (Ile47Val, Lys435Asn, Val441Ala) (protein, UniProt Q58787 1-491, looked up, variant I47V K435N V441A)
(R)-citramalate synthase CimA: MMVRIFDTTLRDGEQTPGVSLTPNDKLEIAKKLDELGVDVIEAGSAVTSKGEREGIKLITKEGLNAEICSFVRALPVDIDAALECDVDSVHLVVPTSPIHMKYKLRKTEDEVLETALKAVEYAKEHGLIVELSAEDATRSDVNFLIKLFNEGEKVGADRVCVCDTVGVLTPQKSQELFKKITENVNLPVSVHCHNDFGMATANTCSAVLGGAVQCHVTVNGIGERAGNASLEEVVAALKILYGYDTKIKMEKLYEVSRIVSRLMKLPVPPNKAIVGDNAFAHEAGIHVDGLIKNTETYEPIKPEMVGNRRRIILGKHSGRKALKYKLDLMGINVSDEQLNKIYERVKEFGDLGKYISDADLLAIVREVTGKLVEEKIKLDELTVVSGNKITPIASVKLHYKGEDITLIETAYGVGPVDAAINAVRKAISGVADINLVEYRAEAIGGGTDALIEVVVKLRKGTEIVEVRKSDADIIRASVDAVMEGINMLLN
B3: Kivd: 2-keto-acid decarboxylase Kivd from Lactococcus lactis (protein, listed as Lactococcus lactis)
chain: MYTVGDYLLDRLHELGIEEIFGVPGDYNLQFLDQIISRKDMKWVGNANELNASYMADGYARTKKAAAFLTTFGVGELSAVNGLAGSYAENLPVVEIVGSPTSKVQNEGKFVHHTLADGDFKHFMKMHEPVTAARTLLTAENATVEIDRVLSALLKERKPVYINLPVDVAAAKAEKPSLPLKKENSTSNTSDQEILNKIQESLKNAKKPIVITGHEIISFGLEKTVSQFISKTKLPITTLNFGKSSVDEALPSFLGIYNGKLSEPNLKEFVESADFILMLGVKLTDSSTGAFTHHLNENKMISLNIDEGKIFNESIQNFDFESLISSLLDLSEIEYKGKYIDKKQEDFVPSNALLSQDRLWQAVENLTQSNETIVAEQGTSFFGASSIFLKPKSHFIGQPLWGSIGYTFPAALGSQIADKESRHLLFIGDGSLQLTVQELGLAIREKINPICFIINNDGYTVEREIHGPNQSYNDIPMWNYSKLPESFGATEERVVSKIVRTENEFVSVMKEAQADPNRMYWIELILAKEDAPKVLKKMGKLFAEQNKS
B4: PDC6: 2-keto-acid decarboxylase Pdc6 from S. cerevisiae (protein, listed as Saccharomyces cerevisiae)
chain: MSEITLGKYLFERLKQVNVNTIFGLPGDFNLSLLDKIYEVDGLRWAGNANELNAAYAADGYARIKGLSVLVTTFGVGELSALNGIAGSYAEHVGVLHVVGVPSISAQAKQLLLHHTLGNGDFTVFHRMSANISETTSMITDIATAPSEIDRLIRTTFITQRPSYLGLPANLVDLKVPGSLLEKPIDLSLKPNDPEAEKEVIDTVLELIQNSKNPVILSDACASRHNVKKETQKLIDLTQFPAFVTPLGKGSIDEQHPRYGGVYVGTLSKQDVKQAVESADLILSVGALLSDFNTGSFSYSYKTKNVVEFHSDYVKVKNATFLGVQMKFALQNLLKVIPDVVKGYKSVPVPTKTPANKGVPASTPLKQEWLWNELSKFLQEGDVIISETGTSAFGINQTIFPKDAYGISQVLWGSIGFTTGATLGAAFAAEEIDPNKRVILFIGDGSLQLTVQEISTMIRWGLKPYLFVLNNDGYTIEKLIHGPHAEYNEIQTWDHLALLPAFGAKKYENHKIATTGEWDALTTDSEFQKNSVIRLIELKLPVFDAPESLIKQAQLTAATNAKQ
modifications: CDS (1)..(1692)
notes: 2-keto-acid decarboxylase Pdc6 from S. cerevisiae

Columns and labels:
[1] = test system: E. coli culture expressing kivd; assay: Alcohol productions with the supply of 2-keto acids; assay type: cell-based; settings: 2-keto acid added to E. coli culture expressing kivd
Text: The addition of various 2-keto acids (see Table 13) to the E. coli culture expressing kivd confirmed the specific production of the corresponding alcohols by 2- to 23-fold.

[2] = test system: endogenous 2-keto acids in E. coli; assay: Alcohol productions with KDC and ADH in E. coli; assay type: cell-based; settings: KDC over-produced with Adh2 in E. coli; minimal media with 0.2 M glucose
Text: An enzyme in this alcohol production strategy is KDC, which is common in plants, yeasts and fungi but less so in bacteria. The aldehydes produced can then be converted to alcohols by an Adh, which is commonly found in many organisms. Some of the KDCs have broad-substrate ranges, while others are more specific. To test the capability of the endogenous 2-keto acids as a substrate for KDC in E. coli, five KDCs including Pdc6, Aro10, Thi3, from S. cerevisiae, Kivd from Lactococcus lactis, and Pdc from C. acetobutylycum were over-produced with alcohol dehydrogenase 2 (Adh2) of S. cerevisiae. E. coli cultures expressing these foreign genes were grown in a minimal media with 0.2 M glucose.

KS145 = assay: 1-Propanol and 1-butanol production with the selected CimA mutants (citramalate pathway); assay type: cell-based, E. coli; settings: 30° C. for 40 h
Method: Medium and cultivation for 1-propanol and 1-butanol production. M9 medium containing 36 g/L glucose, 5 g/L yeast extract, 100 μg/ml ampicillin, 30 μg/ml kanamycin and 1000th dilution of Trace Metal Mix A5 (2.86 g H3BO3, 1.81 g MnCl2.4H2O, 0.222 g ZnSO4.7H2O, 0.39 g Na2MoO4.2H2O, 0.079 g CuSO4.5H2O, 49.4 mg Co(NO3)2.6H2O per liter water) was used for cell growth. Preculture in test tubes containing 3 ml of medium was performed at 37° C. overnight on a rotary shaker (250 rpm). Overnight culture was diluted 1:100 into 20 ml of fresh medium in a 250 ml screw cap conical flask. Cells were grown at 37° C. for 3 hr, followed by adding 0.1 mM IPTG. Cultivation was performed at 30° C. on a rotary shaker (250 rpm). Gas chromatography-flame ionization detector and high-performance liquid chromatography analyses were performed.
The citramalate pathway was then used to enhance the production of 1-propanol and 1-butanol (FIG. 13). An E. coli strain (KS145) auxotrophic for L-isoleucine, leucine, and valine (ΔilvI and ΔilvB). was transformed with pSA63 (or other plasmids containing variants of cimA) and pSA55 (PLlacO1::kivd-ADH2). The deletions of ilvI and ilvB (FIG. 13) were introduced for two reasons. First, the deletions eliminated the native substrate, 2-ketoisovalerate, for the leuABCD pathway, thus reducing the competitive substrate inhibition. Second, these deletions eliminated the production of 2-keto-3-methyl-valerate and 2-keto-4-methyl-pentanoate, which are competing substrates for Kivd. The strain expressing the wild-type cimA gene (KS145/pSA63/pSA55) produced 302 mg/liter 1-propanol and 18 mg/liter 1-butanol after 40 h (FIG. 60). KS145 with pSA55 only, where Kivd utilizes endogenous 2-keto acids, produced 40 mg/liter 1-propanol and 10 mg/liter 1-butanol under the same condition. KS145 without pSA55 and pSA63 produced neither 1-propanol nor 1-butanol (FIG. 60). Note that the yeast extract was added to the medium to boost the cell density.
1-Propanol and 1-butanol production was tested with the selected CimA variants in KS145 by replacing pSA63 with corresponding plasmids (Table 19) containing various cimA mutants. […] The production of 1-propanol and 1-butanol from the strain with CimA2 increased 3.9- and 4.3-fold, respectively, compared to the strain with the wild-type CimA.

[3] = KS145 with pSA55 and pSA63 (cimA-leuABCD) or its variations
[4] = KS145 with pSA55 and pSA63 variations

Molecule	Product 3-methyl-1-butanol [1]	Product 2-phenylethanol [1]	Product 1-propanol [2]	Product 2-methyl-1-butanol [2]	Product 3-methyl-1-butanol [2]	Product isobutanol [2]	other results
CCC(C)C(=O)C(=O)O (centres unmarked) [2-keto-3-methyl-valerate]							Product 2-methyl-1-butanol [1]: 5284 µM
CC(C)CC(=O)C(=O)O [2-keto-4-methyl-pentanoate]	3756 µM						
CC(C)C(=O)C(=O)O [2-keto-isovalerate]		109 µM					Product isobutanol [1]: 10016 µM
CCCC(=O)C(=O)O [2-ketovalerate]	52 µM	66 µM					Product 1-butanol [1]: 3926 µM
O=C(O)C(=O)Cc1ccccc1 [phenylpyruvate]	105 µM	7269 µM					Product 1-butanol [1]: 23 µM; Product 1-propanol [1]: 8 µM; Product isobutanol [1]: 64 µM
B1			290 µM	652 µM	1099 µM	2094 µM	Product 1-butanol [2]: 95 µM; Product 2-phenylethanol [2]: 469 µM
B2							Production of 1-Butanol (KS145; [3]): 22 mg/L; Production of 1-Propanol (KS145; [3]): 695 mg/L; 1-Butanol change (fold) relative to the strain containing wild-type CimA (KS145; [4]): 1.2 fold; 1-Propanol change (fold) relative to the strain containing wild-type CimA (KS145; [4]): 2.3 fold
B3			520 µM	766 µM	1495 µM	5242 µM	Product 1-butanol [2]: 220 µM; Product 2-phenylethanol [2]: 324 µM
B4			125 µM	56 µM	92 µM	260 µM	
